# B1: Guanine nucleotide-binding protein subunit beta (Saccharomyces cerevisiae), P18851 (parent)
# chain: MAAHQMDSITYSNNVTQQYIQPQSLQDISAVEDEIQNKIEAARQESKQLHAQINKAKHKIQDASLFQMANKVTSLTKNKINLKPNIVLKGHNNKISDFRWSRDSKRILSASQDGFMLIWDSASGLKQNAIPLDSQWVLSCAISPSSTLVASAGLNNNCTIYRVSKENRVAQNVASIFKGHTCYISDIEFTDNAHILTASGDMTCALWDIPKAKRVREYSDHLGDVLALAIPEEPNSENSSNTFASCGSDGYTYIWDSRSPSAVQSFYVNDSDINALRFFKDGMSIVAGSDNGAINMYDLRSDCSIATFSLFRGYEERTPTPTYMAANMEYNTAQSPQTLKSTSSSYLDNQGVVSLDFSASGRLMYSCYTDIGCVVWDVLKGEIVGKLEGHGGRVTGVRSSPDGLAVCTGSWDSTMKIWSPGYQ
# partner: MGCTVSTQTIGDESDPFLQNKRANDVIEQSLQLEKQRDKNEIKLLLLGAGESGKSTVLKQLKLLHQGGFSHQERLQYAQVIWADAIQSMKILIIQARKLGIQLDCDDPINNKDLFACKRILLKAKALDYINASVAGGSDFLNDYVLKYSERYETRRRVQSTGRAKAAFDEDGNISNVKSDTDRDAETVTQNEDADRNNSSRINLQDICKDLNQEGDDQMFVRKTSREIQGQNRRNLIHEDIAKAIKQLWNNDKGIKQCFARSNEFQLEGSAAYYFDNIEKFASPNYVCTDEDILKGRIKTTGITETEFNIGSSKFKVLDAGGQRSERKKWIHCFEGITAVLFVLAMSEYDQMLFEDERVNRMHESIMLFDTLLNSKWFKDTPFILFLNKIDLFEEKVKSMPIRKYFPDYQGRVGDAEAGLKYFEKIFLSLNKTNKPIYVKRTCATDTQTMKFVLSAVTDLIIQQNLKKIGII
# Variants of: B1
# Details: with gpa1_yeast GPA1, P08539
row,Variant,effect of a mutation on the interaction
1,MAAHQMDSITYSNNVTQQYIQPQSLQDISAVEDEIQNKIEAARQESKQLHAQINKAKHKIQDASLFQMANKVTSLTKNKINLKPNIVLKGHNNKISDFRWSRDSKRILSASQDGFMLIWDSASGLKQNAIPFDSQWVLSCAISPSSTLVASAGLNNNCTIYRVSKENRVAQNVASIFKGHTCYISDIEFTDNAHILTASGDMTCALWDIPKAKRVREYSDHLGDVLALAIPEEPNSENSSNTFASCGSDGYTYIWDSRSPSAVQSFYVNDSDINALRFFKDGMSIVAGSDNGAINMYDLRSDCSIATFSLFRGYEERTPTPTYMAANMEYNTAQSPQTLKSTSSSYLDNQGVVSLDFSASGRLMYSCYTDIGCVVWDVLKGEIVGKLEGHGGRVTGVRSSPDGLAVCTGSWDSTMKIWSPGYQ [L132F],decreasing interaction
